Measured values published in publication PMC7746637 (Nature chemical biology, 2020).
Where two headings read alike, the source gives them in different places.

Key:
Test in all cases: native MS
[1] = biological target: K2P4.1a (TRAAK, shorter isoform, truncated, residues 1-264), tags removed (human)
native MS [2] = biological target: the molecule itself
native MS [3] = biological target: the molecule itself; remark: listed apart in the source

K2P4.1a (TRAAK, shorter isoform, truncated, residues 1-264), tags removed (domain or fragment)
stoichiometry N [1]: 2

B1: K2P4.1b (residues 1-290) as a C-terminal fusion to mCherry, Strep-tag II and His6 (pPIC-K2P4.1b-mC-S-H) (domain or fragment, human, UniProt Q9NYG8-2 1-290, looked up)
chain: MTTAPQEPPARPLQAGSGAGPAPGRAMRSTTLLALLALVLLYLVSGALVFRALEQPHEQQAQRELGEVREKFLRAHPCVSDQELGLLIKEVADALGGGADPETQSTSQSSHSAWDLGSAFFFSGTIITTIGYGNVALRTDAGRLFCIFYALVGIPLFGILLAGVGDRLGSSLRHGIGHIEAIFLKWHVPPELVRVLSAMLFLLIGCLLFVLTPTFVFCYMEDWSKLEAIYFVIVTLTTVGFGDYVAGADPRQDSPAYQPLVWFWILLGLAYFASVLTTIGNWLRVVSRRT
stoichiometry N (native MS [2]): 2

B2: K2P4.1b (TRAAK, longer isoform, truncated, residues 1-290), expressed with tags at both termini, tags removed (domain or fragment, human, UniProt Q9NYG8-2 1-290, looked up)
chain: MTTAPQEPPARPLQAGSGAGPAPGRAMRSTTLLALLALVLLYLVSGALVFRALEQPHEQQAQRELGEVREKFLRAHPCVSDQELGLLIKEVADALGGGADPETQSTSQSSHSAWDLGSAFFFSGTIITTIGYGNVALRTDAGRLFCIFYALVGIPLFGILLAGVGDRLGSSLRHGIGHIEAIFLKWHVPPELVRVLSAMLFLLIGCLLFVLTPTFVFCYMEDWSKLEAIYFVIVTLTTVGFGDYVAGADPRQDSPAYQPLVWFWILLGLAYFASVLTTIGNWLRVVSRRT
stoichiometry N (native MS [3]): 2
